# Patent US20190119403A1 (published 2019)
# B1: Stefin A-derived antibody Fab (Fab, V domains shown)
# VH: not shown
# VL: DIQMTQSPSSLSASVGDRVTITCRASQDVNVVAGTTAVAWYQQKPGKAPKLLIYGGSKSLPGQNEDLSGGFLYSGVPSRFSGSRSGTDFTLTISSLQPEDFATYYCQQHLGGPITTPPTFGQGTKLEIKR
# Target: human cathepsin B (Recombinant Human Procathepsin B, Novoprotein, converted into active form) (human, UniProt P07858 80-333)
# Assay: enzyme inhibition
binder,measurement,value
B1,Ki,225 nM
